Data set [1] relates to CC(=O)SCCNC(=O)CCNC(=O)[C@H](O)C(C)(C)COP(=O)(O)OP(=O)(O)OC[C@H]1O[C@@H](n2cnc3c(N)ncnc32)[C@H](O)[C@@H]1OP(=O)(O)O. Nature of the data set: HPLC, Hanes-Woolf. It counts as biochemical, Diaporthe amygdali. The following applies: 203 µM 14 (dideacetyl-FC A), 50 mM Tris-HCl pH 8.5, 35°C.
For data set [2], the system named is O=c1ccn([C@@H]2O[C@H](CO[P@@](=O)(O)O[P@@](=O)(O)O[C@H]3O[C@H](CO)[C@@H](O)[C@H](O)[C@H]3O)[C@@H](O)[C@H]2O)c(=O)[nH]1. The data set can be described thus: HPLC, Hanes-Woolf. It counts as biochemical, Diaporthe amygdali. The note with it: 0.1 mM 9 (FC H aglycon), 50 mM MES pH 6.0, 30°C.

With “acetyltransferase-2 (Orf12) (Diaporthe amygdali)”, in data set [1], the Km came to 63 ± 6.6 µM and the kcat was 3.5×10^−3±0.17×10^−3 S^−1.
With “glycosyltransferase (Orf6) (Diaporthe amygdali)”, in data set [2], the Km stood at 520 ± 46 µM and the kcat amounted to 0.40±0.044 S^−1.

(Values after PMC3411640, “Molecular Breeding of a Fungus Producing a Precursor Diterpene Suitable for Semi-Synthesis by Dissection of the Biosynthetic Machinery” (PLoS ONE, 2012).)
